Source: the supplement of paper PMC10567573

B1: NCK2 (parent)
chain: YVERKNSLKKGSLVKNLKDTLGLG
B2: TMEM106C (parent)
chain: TVPEILVHNIVIFMRTSVKISYIG

Variants of: B1
Test: protein stability index of a GFP-peptide fusion (GPS, HEK-293T) (PSI 1-6); higher = more stable
Conditions: c terminus: a fixed tail appended
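Also: lentivirally expressed fusions sorted by FACS into six bins by GFP to DsRed ratio, PSI derived from sequencing read proportions per bin multiplied by bin number.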

Variant	protein stability index
YVERKNSLKKGSLVKNLKDTLQLG [G22Q]	2.31
YVERKNSLKKGSLVKNLKDTLDLG [G22D]	2.21
YVERKNSLKKGSLVKNLKDTLTLG [G22T]	2.37
YVERKNSLKKGSLVKNLKDTLNLG [G22N]	2.46
YVERKNSLKKGSLVKNLKDTLWLG [G22W]	2.56
YVERKNSLKKGSLVKNLKDTLSLG [G22S]	2.13
YVERKNSLKKGSLVKNLKDTLYLG [G22Y]	2.33
YVERKNSLKKGSLVKNLKDTLHLG [G22H]	2.01
YVERKNSLKKGSLVKNLKDTLLLG [G22L]	1.51
YVERKNSLKKGSLVKNLKDTLELG [G22E]	2.34
YVERKNSLKKGSLVKNLKDTLKLG [G22K]	2.09
YVERKNSLKKGSLVKNLKDTLFLG [G22F]	2.86
YVERKNSLKKGSLVKNLKDTLPLG [G22P]	2.44
YVERKNSLKKGSLVKNLKDTLRLG [G22R]	1.97
YVERKNSLKKGSLVKNLKDTLILG [G22I]	1.9
YVERKNSLKKGSLVKNLKDTLVLG [G22V]	1.97
YVERKNSLKKGSLVKNLKDTLMLG [G22M]	2.23
YVERKNSLKKGSLVKNLKDTLGFG [L23F]	2.52
YVERKNSLKKGSLVKNLKDTLGVG [L23V]	2.57
YVERKNSLKKGSLVKNLKDTLGTG [L23T]	2.64
YVERKNSLKKGSLVKNLKDTLGNG [L23N]	2.9
YVERKNSLKKGSLVKNLKDTLGGG [L23G]	2.94
YVERKNSLKKGSLVKNLKDTLGEG [L23E]	2.86
YVERKNSLKKGSLVKNLKDTLGQG [L23Q]	2.33
YVERKNSLKKGSLVKNLKDTLGMG [L23M]	2.7
YVERKNSLKKGSLVKNLKDTLGDG [L23D]	2.76
YVERKNSLKKGSLVKNLKDTLGKG [L23K]	2.71
YVERKNSLKKGSLVKNLKDTLGWG [L23W]	2.44

Variant	protein stability index
YVERKNSLKKGSLVKNLKDTLGIG [L23I]	2.37
YVERKNSLKKGSLVKNLKDTLGAG [L23A]	2.96
YVERKNSLKKGSLVKNLKDTLGSG [L23S]	3.21
YVERKNSLKKGSLVKNLKDTLGCG [L23C]	2.53
YVERKNSLKKGSLVKNLKDTLGRG [L23R]	2.89
YVERKNSLKKGSLVKNLKDTLGYG [L23Y]	1.94
YVERKNSLKKGSLVKNLKDTLGPG [L23P]	2.97
YVERKNSLKKGSLVKNLKDTLGHG [L23H]	2.02
YVERKNSLKKGSLVKNLKDTLGLL [G24L]	1.28
YVERKNSLKKGSLVKNLKDTLGLR [G24R]	2.19
YVERKNSLKKGSLVKNLKDTLGLF [G24F]	1.48
YVERKNSLKKGSLVKNLKDTLGLA [G24A]	2.36
YVERKNSLKKGSLVKNLKDTLGLP [G24P]	2.28
YVERKNSLKKGSLVKNLKDTLGLW [G24W]	1.97
YVERKNSLKKGSLVKNLKDTLGLQ [G24Q]	2.59
YVERKNSLKKGSLVKNLKDTLGLH [G24H]	2.43
YVERKNSLKKGSLVKNLKDTLGLT [G24T]	2.36
YVERKNSLKKGSLVKNLKDTLGLK [G24K]	2.13
YVERKNSLKKGSLVKNLKDTLGLV [G24V]	1.67
YVERKNSLKKGSLVKNLKDTLGLN [G24N]	1.98
YVERKNSLKKGSLVKNLKDTLGLY [G24Y]	1.67
YVERKNSLKKGSLVKNLKDTLGLM [G24M]	2.09
YVERKNSLKKGSLVKNLKDTLGLE [G24E]	3.21
YVERKNSLKKGSLVKNLKDTLGLC [G24C]	2.2
YVERKNSLKKGSLVKNLKDTLGLI [G24I]	1.8
YVERKNSLKKGSLVKNLKDTLGLS [G24S]	2.58
YVERKNSLKKGSLVKNLKDTLGLD [G24D]	2.8

Variants of: B2
Test: as above
Conditions: c terminus: a fixed tail appended

Variant	protein stability index
TVPEILVINIVIFMRTSVKISYIG [H8I]	2.58
TVPEILVSNIVIFMRTSVKISYIG [H8S]	3.74
TVPEILVKNIVIFMRTSVKISYIG [H8K]	3.34
TVPEILVVNIVIFMRTSVKISYIG [H8V]	2.81
TVPEILVTNIVIFMRTSVKISYIG [H8T]	2.41
TVPEILVNNIVIFMRTSVKISYIG [H8N]	3.21
TVPEILVGNIVIFMRTSVKISYIG [H8G]	2.27
TVPEILVLNIVIFMRTSVKISYIG [H8L]	3.28
TVPEILVDNIVIFMRTSVKISYIG [H8D]	3.5
TVPEILVRNIVIFMRTSVKISYIG [H8R]	2.67
TVPEILVQNIVIFMRTSVKISYIG [H8Q]	2.63
TVPEILVPNIVIFMRTSVKISYIG [H8P]	3.19
TVPEILVFNIVIFMRTSVKISYIG [H8F]	3.98
TVPEIMVHNIVIFMRTSVKISYIG [L6M]	2.78
TVPEIWVHNIVIFMRTSVKISYIG [L6W]	2.8
TVPEIHVHNIVIFMRTSVKISYIG [L6H]	3.88
TVPEIIVHNIVIFMRTSVKISYIG [L6I]	2.59
TVPEIGVHNIVIFMRTSVKISYIG [L6G]	3.13
TVPEIRVHNIVIFMRTSVKISYIG [L6R]	4.09
TVPEIAVHNIVIFMRTSVKISYIG [L6A]	3.67
TVPEIFVHNIVIFMRTSVKISYIG [L6F]	2.25
TVPEITVHNIVIFMRTSVKISYIG [L6T]	2.83
TVPEIQVHNIVIFMRTSVKISYIG [L6Q]	2.44

Variant	protein stability index
TVPEICVHNIVIFMRTSVKISYIG [L6C]	4.05
TVPEIVVHNIVIFMRTSVKISYIG [L6V]	4.06
TVPEIPVHNIVIFMRTSVKISYIG [L6P]	2.63
TVPEINVHNIVIFMRTSVKISYIG [L6N]	2.24
TVPEIYVHNIVIFMRTSVKISYIG [L6Y]	2.26
TVPEIKVHNIVIFMRTSVKISYIG [L6K]	2.5
TVPEIEVHNIVIFMRTSVKISYIG [L6E]	2.11
TVPEISVHNIVIFMRTSVKISYIG [L6S]	2.77
LVPEILVHNIVIFMRTSVKISYIG [T1L]	2.03
EVPEILVHNIVIFMRTSVKISYIG [T1E]	2.4
MVPEILVHNIVIFMRTSVKISYIG [T1M]	3.02
DVPEILVHNIVIFMRTSVKISYIG [T1D]	1.51
IVPEILVHNIVIFMRTSVKISYIG [T1I]	4.36
WVPEILVHNIVIFMRTSVKISYIG [T1W]	2.7
SVPEILVHNIVIFMRTSVKISYIG [T1S]	3.42
TIPEILVHNIVIFMRTSVKISYIG [V2I]	2.67
TYPEILVHNIVIFMRTSVKISYIG [V2Y]	3.53
TPPEILVHNIVIFMRTSVKISYIG [V2P]	3.94
TDPEILVHNIVIFMRTSVKISYIG [V2D]	2.5
TLPEILVHNIVIFMRTSVKISYIG [V2L]	3.28
TSPEILVHNIVIFMRTSVKISYIG [V2S]	2.63
TWPEILVHNIVIFMRTSVKISYIG [V2W]	2
TEPEILVHNIVIFMRTSVKISYIG [V2E]	2.47

Variant	protein stability index
THPEILVHNIVIFMRTSVKISYIG [V2H]	2.77
TFPEILVHNIVIFMRTSVKISYIG [V2F]	2.95
TGPEILVHNIVIFMRTSVKISYIG [V2G]	2.98
TNPEILVHNIVIFMRTSVKISYIG [V2N]	2.01
TCPEILVHNIVIFMRTSVKISYIG [V2C]	2.31
TKPEILVHNIVIFMRTSVKISYIG [V2K]	2.81
TVPEDLVHNIVIFMRTSVKISYIG [I5D]	3.24
TVPEQLVHNIVIFMRTSVKISYIG [I5Q]	3.61
TVPEFLVHNIVIFMRTSVKISYIG [I5F]	3.14
TVPERLVHNIVIFMRTSVKISYIG [I5R]	2.19
TVPEMLVHNIVIFMRTSVKISYIG [I5M]	2.67
TVPESLVHNIVIFMRTSVKISYIG [I5S]	2.36
TVPEHLVHNIVIFMRTSVKISYIG [I5H]	4.38
TVPEALVHNIVIFMRTSVKISYIG [I5A]	2.92
TVPEPLVHNIVIFMRTSVKISYIG [I5P]	3.34
TVPELLVHNIVIFMRTSVKISYIG [I5L]	2.94
TVPEYLVHNIVIFMRTSVKISYIG [I5Y]	2.58
TVPEELVHNIVIFMRTSVKISYIG [I5E]	4.16
TVPETLVHNIVIFMRTSVKISYIG [I5T]	3.88
TVPEGLVHNIVIFMRTSVKISYIG [I5G]	2.54
TVPENLVHNIVIFMRTSVKISYIG [I5N]	2.34
TVPEWLVHNIVIFMRTSVKISYIG [I5W]	2.49
TVPEKLVHNIVIFMRTSVKISYIG [I5K]	1.73

Variant	protein stability index
TVPEILVHNAVIFMRTSVKISYIG [I10A]	3.07
TVIEILVHNIVIFMRTSVKISYIG [P3I]	1.79
TVLEILVHNIVIFMRTSVKISYIG [P3L]	1.85
TVGEILVHNIVIFMRTSVKISYIG [P3G]	3.81
TVQEILVHNIVIFMRTSVKISYIG [P3Q]	2.68
TVAEILVHNIVIFMRTSVKISYIG [P3A]	3.18
TVCEILVHNIVIFMRTSVKISYIG [P3C]	2.32
TVREILVHNIVIFMRTSVKISYIG [P3R]	3.41
TVSEILVHNIVIFMRTSVKISYIG [P3S]	3.98
TVNEILVHNIVIFMRTSVKISYIG [P3N]	1.33
TVHEILVHNIVIFMRTSVKISYIG [P3H]	2.52
TVKEILVHNIVIFMRTSVKISYIG [P3K]	3.27
TVPQILVHNIVIFMRTSVKISYIG [E4Q]	2.61
TVPVILVHNIVIFMRTSVKISYIG [E4V]	3.21
TVPKILVHNIVIFMRTSVKISYIG [E4K]	2.94
TVPDILVHNIVIFMRTSVKISYIG [E4D]	3.56
TVPIILVHNIVIFMRTSVKISYIG [E4I]	2.02
TVPNILVHNIVIFMRTSVKISYIG [E4N]	2.99
TVPYILVHNIVIFMRTSVKISYIG [E4Y]	2.81
TVPHILVHNIVIFMRTSVKISYIG [E4H]	2.29
TVPGILVHNIVIFMRTSVKISYIG [E4G]	3.29
TVPSILVHNIVIFMRTSVKISYIG [E4S]	2.88
TVPMILVHNIVIFMRTSVKISYIG [E4M]	4.55

Variant	protein stability index
TVPTILVHNIVIFMRTSVKISYIG [E4T]	2.5
TVPFILVHNIVIFMRTSVKISYIG [E4F]	2.67
TVPLILVHNIVIFMRTSVKISYIG [E4L]	3.55
TVPEILVHDIVIFMRTSVKISYIG [N9D]	3.55
TVPEILVHLIVIFMRTSVKISYIG [N9L]	3.14
TVPEILVHCIVIFMRTSVKISYIG [N9C]	2.85
TVPEILVHYIVIFMRTSVKISYIG [N9Y]	2.44
TVPEILVHEIVIFMRTSVKISYIG [N9E]	2.96
TVPEILVHPIVIFMRTSVKISYIG [N9P]	3.7
TVPEILVHFIVIFMRTSVKISYIG [N9F]	2.06
TVPEILVHVIVIFMRTSVKISYIG [N9V]	2.49
TVPEILVHIIVIFMRTSVKISYIG [N9I]	2.82
TVPEILVHMIVIFMRTSVKISYIG [N9M]	3.79
TVPEILVHHIVIFMRTSVKISYIG [N9H]	2.15
TVPEILVHAIVIFMRTSVKISYIG [N9A]	2.89
TVPEILVHRIVIFMRTSVKISYIG [N9R]	2.94
TVPEILVHGIVIFMRTSVKISYIG [N9G]	2.98
TVPEILVHWIVIFMRTSVKISYIG [N9W]	3.74
TVPEILVHTIVIFMRTSVKISYIG [N9T]	2.49
TVPEILVHKIVIFMRTSVKISYIG [N9K]	2.02
TVPEILVHSIVIFMRTSVKISYIG [N9S]	2.31
TVPEILVHQIVIFMRTSVKISYIG [N9Q]	2.95
TVPEILDHNIVIFMRTSVKISYIG [V7D]	2.53

Variant	protein stability index
TVPEILAHNIVIFMRTSVKISYIG [V7A]	3.25
TVPEILIHNIVIFMRTSVKISYIG [V7I]	4.62
TVPEILWHNIVIFMRTSVKISYIG [V7W]	3.68
TVPEILNHNIVIFMRTSVKISYIG [V7N]	2.83
TVPEILPHNIVIFMRTSVKISYIG [V7P]	3.59
TVPEILMHNIVIFMRTSVKISYIG [V7M]	2.05
TVPEILYHNIVIFMRTSVKISYIG [V7Y]	3.26
TVPEILSHNIVIFMRTSVKISYIG [V7S]	2.37
TVPEILCHNIVIFMRTSVKISYIG [V7C]	3.89
TVPEILKHNIVIFMRTSVKISYIG [V7K]	3.79
TVPEILEHNIVIFMRTSVKISYIG [V7E]	4.49
TVPEILTHNIVIFMRTSVKISYIG [V7T]	2.15
TVPEILRHNIVIFMRTSVKISYIG [V7R]	2.44
TVPEILGHNIVIFMRTSVKISYIG [V7G]	3.49
TVPEILFHNIVIFMRTSVKISYIG [V7F]	2.51
TVPEILHHNIVIFMRTSVKISYIG [V7H]	3.09
TVPEILLHNIVIFMRTSVKISYIG [V7L]	2.24
TVPEILQHNIVIFMRTSVKISYIG [V7Q]	3.02
